From patent US20160159927A1
Blank lines part the entries; values can stand above or below the substance they belong to.

Tests used:
[1] = target: PD1 (over-expressed on cells); test: cell-cell conjugation: dye-labelled A20-PD-L1 and A20-PD1 cells mixed, double-positive events read by flow cytometry (positive control)
[2] = target: VSIG8 (over-expressed on cells; species not stated) (Homo sapiens (Human)) (UniProt P0DPA2); test: cell-cell conjugation: two differently dye-labelled lots of A20-VSIG8 cells mixed, double-positive events read by flow cytometry (negative control)
[3] = target: VSIG8 (over-expressed on cells; species not stated) (Homo sapiens (Human)) (UniProt P0DPA2); test: cell-cell conjugation: dye-labelled A20-VISTA and A20-VSIG8 cells mixed, double-positive events read by flow cytometry

Q2 (percent double-positive, conjugated cells) [1]: 28
Substance: PD-L1 (over-expressed on A20 cells) (ligand)

Q2 (percent double-positive, conjugated cells) [2]: 3.92
Substance: VSIG8 (over-expressed on cells; species not stated) (from UniProt P0DPA2 22-414) (receptor)

Q2 (percent double-positive, conjugated cells) [3]: 11.4
Substance: VISTA (over-expressed on A20 cells; species not stated) (from UniProt Q9H7M9 33-311) (ligand)
